Results from paper PMC5558740.

Molecular target: CX3CR1 2-21 (UniProt P49238)
Experiment: affinity chromatography on CX3CR1 peptide-Sepharose, dot blot
Conditions: reference: Tau42 not phosphorylated; sites S396

Chain of CX3CR1 2-21 (P49238 whole entry, looked up, tested part not stated): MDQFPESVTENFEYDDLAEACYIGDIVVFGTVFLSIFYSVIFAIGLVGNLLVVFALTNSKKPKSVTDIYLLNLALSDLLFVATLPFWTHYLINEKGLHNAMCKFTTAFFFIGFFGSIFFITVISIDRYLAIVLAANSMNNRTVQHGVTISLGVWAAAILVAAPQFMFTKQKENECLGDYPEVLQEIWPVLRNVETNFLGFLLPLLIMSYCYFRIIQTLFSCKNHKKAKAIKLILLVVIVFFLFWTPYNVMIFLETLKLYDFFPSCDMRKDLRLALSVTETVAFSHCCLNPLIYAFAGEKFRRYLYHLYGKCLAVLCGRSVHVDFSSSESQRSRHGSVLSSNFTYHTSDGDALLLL

Tau (Tau42) (from UniProt P10636-8) Tau42 phosphorylated by GSK-3β
other: elution fraction number: weaker; reference 4
